According to PMC5406781, “Myxococcus xanthus DK1622 Coordinates Expressions of the Duplicate groEL and Single groES Genes for Synergistic Functions of GroELs and GroES” (Frontiers in Microbiology, 2017):

B1: Myxococcus xanthus DK1622 GroEL1 (natural protein, UniProt Q1D2S1 1-549, looked up)
chain: MAKDILFDVRAREAILRGVNILADAVKVTLGPKGRNVVIEKSFGSPTITKDGVTVAKEIELENKFENMGAQMVKEVASKTSDVAGDGTTTATVLAQAIFREGAKLVAAGHNPMDIKRGIDKAVGAIVAELKKLAKPTKDKKEIAQVGTISANGDETIGTIIADAMEKVGKEGVITVEEAKGLETTLDVVEGMQFDRGYLSPYFVTDPERMEAALNDALILINEKKISSMKDLLPILEQVARAGKPLLIIAEDIEGEALATLVVNKIRGVLNVCAVKAPGFGDRRKAMLEDIATLTGGRMIAEDLGIKLDTITLQDLGRAKRITVDKDNTTIVDGAGGQQEIEARVKQIRAQIEETSSDYDREKLQERLAKLVGGVAVINVGAATETEMKEKKARVEDALNATRAAVEEGVVPGGGVAYIRCLKALDGLQLSGGEKFGVDIIRRAVEEPLRQIVGNGGLEGSVVVNKVKESSGPFGFNAATGTYEDLLAAGVIDPAKVSRTALQNAASVSSLMLTTEAMVAERPKEEKDLPAGGGMGGMGGMGGMGGMGM
notes: printed Mw 57.9 kDa; no His-tag added; UniProt may number the two paralogues the other way round (groL2 for the gene next to groES); also called Cpn60; chaperonin GroEL; source: E. coli BL21(DE3), pET22b (pET22b-GroEL1-NoHis); purified (100-kDa cut-off concentration, Superdex 200) for the pull-down, in cell extract for native PAGE; copies: 14
B2: Myxococcus xanthus DK1622 GroEL2 (natural protein, UniProt Q1D3Y5 1-547, looked up)
chain: MAAKEIFFHQSAREAILRGVRTLSDAVAVTLGPKGRNVVIEKSFGSPTITKDGVTVAKEIDLENKFENMGAQMVKEVASKTSDKAGDGTTTATVLARAIYEEGLKLVAAGHSPMDLKRGIDKAVEVVVGELKSLSKPTADKKAITQVGTISANGDETIGAIIADAMEKVGKEGVITVEEAKGLETTLDVVEGMQFDRGYVSPYFVTNRERMEAVLEDPYILISEKKVSSMQDMIPLLEQVARSGKPLIIIADDIEGEALATLVVNKIRGVLNVCAVKAPGFGDRRKEMLQDIAVLTGGTVVSEDLGHKFETLTLTDLGRAKRVTVDKDNTTVVDGVGTKAAIEGRIKLIRTQIDSVTSDYDREKLQERLAKLVGGVAVINVGAATETEMKEKKARVEDALHATRAAVEEGIVPGGGVAYLRALPALEKLKPGGEQDFGVAIIRRALQEPLRKIASNAGVEGAVVINKVREGTGAFGYNARTEVYEDLEKAGVIDPTKVERTALQNAASVASLLLTTEAMVAERPKGKAKGGGAGAGMPDYGGDDMDY
notes: printed Mw 58.1 kDa; no His-tag added; UniProt may number the two paralogues the other way round (groL1 for the stand-alone gene); also called Cpn60; chaperonin GroEL; source: E. coli BL21(DE3), pET22b (pET22b-GroEL2-NoHis); purified (100-kDa cut-off concentration, Superdex 200) for the pull-down, in cell extract for native PAGE; copies: 14
B3: Myxococcus xanthus DK1622 GroES without His-tag (natural protein, UniProt Q1D2S2 1-96, looked up)
chain: MKIRPLQDRLIVKRVAEENKTKGGLFIPDTAKEKPLEGKVIAVGNGKVQEDGKVRPLDIKAGDTILFSKYAGTEIKLDGEEHLILREEDVLGVIEK
notes: printed Mw 10.7 kDa; construct named NoHis; also called Cpn10; GroES-NoHis; source: E. coli BL21(DE3), pET28a-GroES-NoHis, in cell extract

Target: the molecule itself
Test: native gel or EMSA; native PAGE (no SDS or mercaptoethanol, run in ice-water) of extracts of E. coli BL21(DE3) cells expressing GroEL1, GroEL2 or GroES alone, or GroEL1/GroEL2 co-expressed with GroES
With B1 the “stoichiometry N” value was 14. B2 was tested, and the “stoichiometry N” value was 14. With B3 the “stoichiometry N” value was 7.
